Consider one substance from PMC5057313.

This test deals with Arabidopsis ferredoxin : thioredoxin reductase catalytic subunit (AtFTRc), prey in pGADT7 (Arabidopsis thaliana) (UniProt Q9SJ89).
UniProt Q9SJ89, sequence (Q9SJ89 whole entry): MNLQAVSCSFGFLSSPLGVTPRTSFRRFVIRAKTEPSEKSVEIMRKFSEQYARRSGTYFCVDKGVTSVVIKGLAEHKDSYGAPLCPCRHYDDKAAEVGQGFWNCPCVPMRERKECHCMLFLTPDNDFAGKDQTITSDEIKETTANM

“MjTTL5 (transthyretin-like protein 5 of Meloidogyne javanica), bait in pGBKT7 (natural protein)” came in with an H2O2 consumption of wild-type Arabidopsis protein with MjTTL5 against the MjTTL5-free treatment (only 1.8-fold in the AtFTRc mutants; Fig. S16c) of 2.5 fold.
